# In US20020012949A1, “Assay systems for leptin-enhancing agents” (priority 1997, published 2002):
# Target: T1, OB-R (Homo sapiens, UniProt P48357)
# T1 construct: The cytoplasmic domain and full-length human OB-R was cloned by PCR; expressed in transfected cells; host or cells: COS-7
# T1 sequence (P48357 22-1165): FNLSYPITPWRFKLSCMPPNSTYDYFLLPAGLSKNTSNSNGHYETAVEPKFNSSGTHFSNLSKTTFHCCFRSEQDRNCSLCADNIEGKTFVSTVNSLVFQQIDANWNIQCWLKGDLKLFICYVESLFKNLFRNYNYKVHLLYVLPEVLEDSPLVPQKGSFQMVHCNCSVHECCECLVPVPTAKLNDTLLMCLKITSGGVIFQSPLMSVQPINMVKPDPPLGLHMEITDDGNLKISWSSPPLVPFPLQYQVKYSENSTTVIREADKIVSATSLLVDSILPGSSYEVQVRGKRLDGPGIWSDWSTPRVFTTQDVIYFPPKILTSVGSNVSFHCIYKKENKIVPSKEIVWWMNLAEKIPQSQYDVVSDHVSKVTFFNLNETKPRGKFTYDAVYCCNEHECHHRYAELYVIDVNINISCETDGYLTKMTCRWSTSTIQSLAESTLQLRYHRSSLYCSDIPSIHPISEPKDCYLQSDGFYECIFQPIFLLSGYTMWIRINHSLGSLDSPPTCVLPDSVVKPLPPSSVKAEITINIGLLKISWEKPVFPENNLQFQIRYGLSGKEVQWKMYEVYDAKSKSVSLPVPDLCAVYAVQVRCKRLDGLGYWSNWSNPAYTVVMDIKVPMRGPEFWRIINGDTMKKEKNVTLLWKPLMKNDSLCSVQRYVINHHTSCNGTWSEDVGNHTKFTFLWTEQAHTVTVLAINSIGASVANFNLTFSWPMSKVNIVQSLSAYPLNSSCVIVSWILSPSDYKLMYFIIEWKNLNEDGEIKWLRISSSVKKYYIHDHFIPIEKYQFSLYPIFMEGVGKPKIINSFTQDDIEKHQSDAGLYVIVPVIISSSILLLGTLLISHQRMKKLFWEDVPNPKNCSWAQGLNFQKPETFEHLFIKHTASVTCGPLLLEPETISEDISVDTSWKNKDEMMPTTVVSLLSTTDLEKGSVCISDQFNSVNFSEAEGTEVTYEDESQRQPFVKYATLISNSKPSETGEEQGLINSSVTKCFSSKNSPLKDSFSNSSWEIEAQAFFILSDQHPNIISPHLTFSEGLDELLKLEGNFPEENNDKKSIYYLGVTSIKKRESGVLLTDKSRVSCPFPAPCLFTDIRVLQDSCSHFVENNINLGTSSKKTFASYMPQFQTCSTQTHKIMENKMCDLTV
# Assay: Immunoprecipitation and western blotting of tyrosine phosphorylation, leptin-stimulated COS cells expressing OB-R
# Type: cell-based
# Conditions: 100 ng/ml human leptin for 10 min
# Method: The cytoplasmic domain and full-length human OB-R was cloned by PCR using human fetal liver and adipocyte cDNA (Clontech) and cloned into the expression vectors pCMX and pMT21. Chimeric receptors were constructed by fusing the extracellular domain and transmembrane domain of TrkC (amino acids 1 to 458) to the cytoplasmic domain of OB-R (amino acids 865-1165). A triple myc epitope tag was added at the C-terminus of all OB-R constructs (18). Truncation and point mutant constructs were generated by PCR and the sequences of all constructs were verified. Expression constructs were transfected into COS-7 cells using lipofectamine (GIBCO-BRL); 36-48 hours after transfection, cells were starved for either 2 hour,s for chimeric receptors or overnight for full-length receptors prior to stimulation.
# Cells were stimulated with 50 ng/ml of human NT-3 for 15 min or 100 ng/ml of human leptin (R&D Systems) for 10 min. Cells were then lysed in a 1% Brij 96 buffer and receptor was immunoprecipitated with anti-myc antibody 9E10 (18) followed by protein G-sepharose (Pharmacia). Unbound lysate was then immunoprecipitated with anti-P-Tyr antibody (UBI, Lake Placid) or agarose-conjugated anti-SHP-2 antibody (Santa Cruz Biotechnology). […] Endogenous STAT3, SHP-2, Jak1 and Jak2 is being detected in all immunoblotting experiments. […]
substance,measurement,value
"leptin: the product of the obese gene, secreted by adipocytes; ligand of OB-R","tyrosine phosphorylation of receptor, STAT3 and SHP-2","results in phosphorylation of the receptor, STAT3 and SHP-2"
